Among the data in US20260028391A1 are RSV Neutralization - IC50 values, retold here.

In the assay the target is fusion glycoprotein of the RSV used in the neutralization assay of Example 1 (respiratory syncytial virus (strain not stated)). Nature of the assay: cell-based or functional assay.

B1: MPK170 (antibody, V domains shown)
VH: QVQLVQSGAEVKKPGESLKISCKGSGYSFINYWIGWVRQMPGKGLEWMGIIYPFDSDTKYSPSFQGHVTISADKSINTAYVQWSSLKASDTAIYYCARFTFGIAVSTDDVSGEGQAFDLWGQGTRVTVSS
VL: EIVMMQSPATLSVSPGERATLSCRASQSVAGNLAWYQQRPGQAPRLLIYAGSARATGVPARFSGSGSETEFTLTISSLQSEDFAVYYCHHYSNWPQAFGQGTRLDIK
B1 yielded an RSV Neutralization - IC50 of 1.1 ng/mL.

B2: MPK165 (antibody, V domains shown)
VH: EVQLVQSGAEVKKPGESLKISCRASGYSFNNYWVGWVRQVPGKGLEWMGFIYPFDSDTKYSPSFEGHVTISADKSIDTAYLQWSSLRSSDTAIYYCARFTFGIALVAGDVTGGGQAFEVWGQGTLVTVSS
VL: EIVMTQSPATLSVSPGERATLSCRASQSVAGKLAWYQQRPGQAPRLIIYAASTRAAGVPARFSGSGSETEFTLTISSLQSEDFAVYYCHHYSNWPQAFGQGTRLDIK
In turn, B2 had an RSV Neutralization - IC50 of 1 ng/mL.

B3: MPK178 (antibody, V domains shown)
VH: EVQLVQSGAEVKKPGESLKISCRASGYSFVNYWIGWVRQVPGKGLEWMGFIYPFDSDTQYSPSFQGHVTISADKSINTAYLQWSSLRASDTAIYYCARFTFGIALVAGDVTGGGQAFEVWGQGTLVSVSS
VL: DIVMTQSPVTLSVSPGERATLSCRASQSVAGNLAWYQQRPGQAPRLLIYAASTRATGVPARFSGSGSETEFTLTISSLQSEDFAVYYCHHYSNWPQAFGQGTRLDIK
In turn, B3 returned an RSV Neutralization - IC50 of 1 ng/mL.

B4: MPK171-v2 (antibody, V domains shown)
VH: QVQLVQSGAEVKKPGESLKISCKGSGYSFINYWIGWVRQMPGKGLEWMGIIYPFDSDTKYSPSFQGHVTISADKSINTAYVQWSSLKASDTAMYYCARFTFGIAVVTDDVSGEGHAFDIWGQGTMVTVSS
VL: QSVLTQSPATLSVSPGERATLSCRASQSVAGNLAWYQQRPGQAPRLLIYGASTRATGVPARFSGSGSETEFTLTISSLQSEDFAVYYCQQYSNWPQAFGQGTRLDIK
As to B4, the RSV Neutralization - IC50 amounted to 1 ng/mL.

B5: MPK163 (antibody, V domains shown)
VH: EVQLVQSGAEVKKPGESLKMSCKTSGYSFRSYWIAWVRQRPGKGLEWMGIIWPGDSDVRYGPSFQGQVTISADRSTNTAYLQWSSLKASDTAIYWCARQNYDFWSGHSLGTGADYYYGMDVWGQGTTVTVSS
VL: SSELTQPPSASGTPGQRVTISCSGSSSNIGRNIVHWYQHVPGTAPKLLIYNNDERPSGVPDRFSGSKSGTSASLAISGLQSEDEADYYCTVWDDSLNGGVFGGGTKVTVL
B5 registered an RSV Neutralization - IC50 of 1.4 ng/mL.

B6: MPK173 (antibody, V domains shown)
VH: QVQLVQSGAEVRKPGASVKVSCRASGYTFSNFGITWVRQAPGQGLEWMGWISAYNGNTKSAQKFQDRVTMTTDTTTSTAYMELRSLRSDDTAVYYCARDTPSSDGAALLDYWGQGTLVTVSS
VL: DIVMTQTPLSLPVTLGQPASISCRSSQSLVYSDGNTYLSWFQQRPGQSPRRLIYKVSNRDSGVPDRFSGSGSGTYFTLKINRVEAEDVGVYYCMQSKYWLTFGQGTKVEIK
The molecule B6 yielded an RSV Neutralization - IC50 of 10.2 ng/mL.

B7: MPK161-v1 (antibody, V domains shown)
VH: EVQLVQSGVEAKKPGESLKISCRASGYSFVNFWIGWVRQVPGKGLEWMGFIYPFDSDTKYGPSFEGHVIISADKSTNTAYLEWRSLRASDSAMYYCARFTFGIALVAGDVTGGGQAFEVWGQGTLVSVSS
VL: AIWMTQSPSTLSASVGDRVTVTCRASLSIGTWLAWYQHKPGKAPKFLIYKASSLESGVPSRFSGSGSGTEFTLTISSLQPDDFATYYCQQYDSYPFTFGGGTKVEIK
Take B7: the RSV Neutralization - IC50 stood at 2.8 ng/mL.

B8: MPK161-v2 (antibody, V domains shown)
VH: EVQLVQSGVEAKKPGESLKISCRASGYSFVNFWIGWVRQVPGKGLEWMGFIYPFDSDTKYGPSFEGHVIISADKSTNTAYLEWRSLRASDSAMYYCARFTFGIALVAGDVTGGGQAFEVWGQGTLVSVSS
VL: EIVMMQSPATLSVSPGDRATLSCRASQSVAGNLAWYQQRPGQAPRLLIYAASTRATGVPARFSGSGSETEFTLTISSLQSEDFAVYYCHHYSNWPQAFGQGTRLDIK
As to B8, the RSV Neutralization - IC50 was 1.1 ng/mL.
